The target of test [1] is T1, Thermococcus gammatolerans SlyD-IGF-2(53-65) fusion polypeptide.
T1 construct: Human IGF-2 amino acids 53-65 inserted into the Thermococcus gammatolerans SlyD scaffold, with GS spacer and hexahistidine tag; also called Thermococcus gammadurans SlyD-IGF-2 (53-65)
T1 chain: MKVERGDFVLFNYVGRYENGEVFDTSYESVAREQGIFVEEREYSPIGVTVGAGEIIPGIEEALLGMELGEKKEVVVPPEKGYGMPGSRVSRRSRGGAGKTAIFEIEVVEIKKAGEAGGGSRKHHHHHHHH
The test is described as follows: SPR (BIAcore T200), 25 C, antibody captured, antigen in solution. Here is the method:
(§1) The BIAcore T200 System was driven under the control software V1.1.1. Polyclonal rabbit IgG antibody <IgGFCγM>R (Jackson ImmunoResearch Laboratories Inc.) was immobilized at 30 μg/ml in 10 mM sodium acetate buffer (pH 4.5) at 6500 RU on the flow cells 1, 2, 3, and 4, respectively, via EDC/NHS chemistry according to the manufacturer's instructions. Finally, the sensor surface was blocked with a 1 M ethanolamine solution. The complete experiment was performed at 25° C.
(§2) The clone culture supernatants containing the respective antibodies at approx. 40 nM were captured for 2 min at a flow rate of 5 μl/min on the <IgGFCγM>R surface. As analytes in solution the recombinant native IGF-1 (Peprotech Inc. Cat.#100-11), recombinant native IGF-2 (Peprotech Inc. Cat.#100-12), Thermus thermophilus SlyD-IGF-1(74-90), recombinant wild-type Thermus thermophilus SlyD, recombinant Thermus thermophilus SlyD-ΔIF, recombinant wild-type Thermococcus gammadurans SlyD, recombinant Thermococcus gammadurans SlyD-IGF-2 (53-65) fusion polypeptides were used. Thermus thermophilus SlyD-ΔIF is solely the FKBP domain of Thermus thermophilus SlyD lacking the IF domain. Thermococcus gammadurans SlyD-IGF-2(53-65) was used to counterscreen and investigate the specificity for the IGF-1 hairpin in contrast to the IGF-2 hairpin insertion. The respective analytes were injected at different concentration steps from 90 nM, 30 nM, 10 nM, 3.3 nM, 1.1 nM and 0 nM. The association phase was monitored for 3 min. at a flow rate of 100 μl/min. The dissociation was monitored for 10 min. at a flow rate of 100 μl/min. The system was regenerated using a 10 mM glycine buffer (pH 1.7). Kinetics were evaluated using the BIAcore Evaluation Software.
In general terms: Surface plasmon resonance follows binding to a sensor surface in real time, without labels.

Test [2] deals with T2, Thermus thermophilus wild type SlyD polypeptide (Thermus thermophilus).
T2 construct: Used as negative control; also called wild-type Thermus thermophilus SlyD; Thermus thermophilus-SlyD
T2 chain: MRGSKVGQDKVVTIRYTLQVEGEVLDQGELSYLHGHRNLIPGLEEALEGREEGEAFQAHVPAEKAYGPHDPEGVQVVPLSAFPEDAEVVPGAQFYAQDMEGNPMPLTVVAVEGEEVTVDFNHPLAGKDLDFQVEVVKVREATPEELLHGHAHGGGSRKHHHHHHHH
Described as above. The method, then:
as §1, §2

Test [3] concerns the target T3, human insulin-like growth factor-1 (mature, recombinant native IGF-1, Peprotech Cat.#100-11) (human, UniProt P05019 49-118).
T3 construct: In SPR it was the analyte in solution; also called native recombinant IGF-1; human IGF-1
The description is as above. The method, then:
as §1, §2

Test [4] has as its target T4, recombinant native IGF-2 (Peprotech Inc. Cat.#100-12) (human, UniProt P01344 25-91).
T4 construct: The sentence on the bought protein names no species; also called insulin-like growth factor-2
Described as above. The method, then: as §1, §2

Test [5] concerns the target T5, Thermococcus gammatolerans wild-type SlyD polypeptide (Thermococcus gammatolerans).
T5 construct: also called wild-type Thermococcus gammadurans SlyD; native SlyD from Thermococcus gammatolerans
T5 chain: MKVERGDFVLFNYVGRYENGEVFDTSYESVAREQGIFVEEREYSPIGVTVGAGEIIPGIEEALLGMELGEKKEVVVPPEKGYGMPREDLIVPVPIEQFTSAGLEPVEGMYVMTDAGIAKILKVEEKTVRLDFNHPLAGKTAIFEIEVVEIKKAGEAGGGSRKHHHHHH
The test is described as above. The method, then: as §1, §2

A further test has as its target T6, SEQ ID NO 46 (human, also: covalently linked to cellulose).
T6 construct: Spot on the CelluSpots peptide array; also called G-N-K-P-T-G-Y-G-S-S-S-R-R-A-P
T6 peptide: GNKPTGYGSSSRRAP
The test is described as follows: CelluSpots peptide array, chemiluminescence. Here is the method:
(§3) Each peptide synthesized was shifted by one amino acid, i.e. it had 14 amino acids overlap with the previous and the following peptide, respectively. For preparation of the peptide arrays the Intavis CelluSpots™ technology was employed. In this approach, peptides are synthesized with an automated synthesizer (Intavis MultiPep RS) on modified cellulose disks which are dissolved after synthesis. The solutions of individual peptides covalently linked to macromolecular cellulose are then spotted onto coated microscope slides. The CelluSpots™ synthesis was carried out stepwise utilizing 9-fluorenylmethoxycarbonyl (Fmoc) chemistry on amino-modified cellulose disks in a 384-well synthesis plate. In each coupling cycle, the corresponding amino acids were activated with a solution of DIC/HOBt in DMF. Between coupling steps un-reacted amino groups were capped with a mixture of acetic anhydride, diisopropylethyl amine and 1-hydroxybenzotriazole. Upon completion of the synthesis, the cellulose disks were transferred to a 96-well plate and treated with a mixture of trifluoroacetic acid (TFA), dichloromethane, triisoproylsilane (TIS) and water for side chain deprotection. After removal of the cleavage solution, the cellulose bound peptides are dissolved with a mixture of TFA, TFMSA, TIS and water, precipitated with diisopropyl ether and re-suspended in DMSO. The peptide solutions were subsequently spotted onto Intavis CelluSpots™ slides using an Intavis slide spotting robot.
(§4) For epitope analysis, the slides prepared as described above were washed with ethanol and then with Tris-buffered saline (TBS; 50 mM Tris, 137 mM NaCl, 2.7 mM KCl, pH 8) before blocking for 16 h at 4° C. with 5 mL 10× Western Blocking Reagent (Roche Applied Science), 2.5 g sucrose in TBS, 0.1% Tween 20. The slide was washed with TBS and 0.1% Tween 20 and incubated afterward with 1 µg/mL of the corresponding IGF1 antibodies in TBS and 0.1% Tween 20 at ambient temperature for 2 h and subsequently washed with TBS+0.1% Tween 20. For detection, the slide was incubated with anti-rabbit/anti-mouse secondary HRP-antibody (1:20000 in TBS-T) followed by incubation with chemiluminescence substrate luminol and visualized with a Lumilmager (Roche Applied Science). ELISA-positive SPOTs were quantified and through assignment of the corresponding peptide sequences the antibody binding epitopes were identified.

The next test deals with T7, SEQ ID NO 50 (human, also: covalently linked to cellulose).
T7 construct: Spot on the CelluSpots peptide array; also called T-G-Y-G-S-S-S-R-R-A-P-Q-T-G-G
T7 peptide: TGYGSSSRRAPQTGG
The test is described as follows: CelluSpots peptide array, chemiluminescence. The method, then: as §3, §4

For another test, the target named is T8, SEQ ID NO 44 (human, also: covalently linked to cellulose).
T8 construct: Spot on the CelluSpots peptide array; also called Y-F-G-N-K-P-T-G-Y-G-S-S-S-R-R
T8 peptide: YFGNKPTGYGSSSRR
The experiment in a line: CelluSpots peptide array, chemiluminescence. The method, then: as §3, §4

The next test concerns the target T9, SEQ ID NO 45 (human, also: covalently linked to cellulose).
T9 construct: Spot on the CelluSpots peptide array; also called F-G-N-K-P-T-G-Y-G-S-S-S-R-R-A
T9 peptide: FGNKPTGYGSSSRRA
The experiment in a line: CelluSpots peptide array, chemiluminescence. Here is the method: as §3, §4

Another test has as its target T10, SEQ ID NO 47 (human, also: covalently linked to cellulose).
T10 construct: Spot on the CelluSpots peptide array; also called N-K-P-T-G-Y-G-S-S-S-R-R-A-P-Q
T10 peptide: NKPTGYGSSSRRAPQ
The experiment in a line: CelluSpots peptide array, chemiluminescence. Here is the method:
as §3, §4

Another test deals with T11, SEQ ID NO 49 (human, also: covalently linked to cellulose).
T11 construct: Spot on the CelluSpots peptide array; also called P-T-G-Y-G-S-S-S-R-R-A-P-Q-T-G
T11 peptide: PTGYGSSSRRAPQTG
The test is described as follows: CelluSpots peptide array, chemiluminescence. The method, then:
as §3, §4

The target in another test is T12, SEQ ID NO 43 (human, also: covalently linked to cellulose).
T12 construct: Spot on the CelluSpots peptide array; also called F-Y-F-G-N-K-P-T-G-Y-G-S-S-S-R
T12 peptide: FYFGNKPTGYGSSSR
The test is described as follows: CelluSpots peptide array, chemiluminescence. Here is the method: as §3, §4

A further test has as its target T13, SEQ ID NO 48 (human, also: covalently linked to cellulose).
T13 construct: Spot on the CelluSpots peptide array; also called K-P-T-G-Y-G-S-S-S-R-R-A-P-Q-T
T13 peptide: KPTGYGSSSRRAPQT
The test is described as follows: CelluSpots peptide array, chemiluminescence. Here is the method:
as §3, §4

The target in test [6] is T2, Thermus thermophilus wild type SlyD …. The experiment in a line: ELISA, clone culture supernatant. Background: An ELISA detects its analyte on a solid surface through an enzyme-linked reagent.
In test [7] the target is T3, human insulin-like growth factor-1 …. The test is described as follows: ELISA, clone culture supernatant.

Ends that are not written are not given here.

B1: MAb<h-IGF-1>M-11.11.17 (antibody, V domains shown)
VH: QVQLQQSGAELVRPGSSVKISCKASGYAFSNLWMNWVKQRPGQGLEWIGQIYPGDGDTNYYGDFKGKATLTADSSSSTAYMQLSRLTSEDSAVYFCARIGYYGMDYWGQGTSVTVSS
VL: DVVLTQTPLSLPVNIGDEASISCKSTKSLLSSDGLTYLDWYLQKPGQSPQVLIYLVSNRFSGVPDRFSGSGSGTDFTLKISRVEAEDLGVYYCFQSNYLPTFGAGTKLELK
notes: Mouse monoclonal IgG from a hybridoma, raised with Thermus thermophilus SlyD-IGF-1(74-90); also called MAb 11.11.17; mAb<IGF1>M-11.11.17
B1: the binding result in [1] is “no binding (tested: 90 nM)”; in test [2] it was “no binding (tested: 90 nM)”; in test [4] it was “no binding (tested: 90 nM)”; in test [5], “no binding (tested: 90 nM)”; with SEQ ID NO 46, “binds”; with SEQ ID NO 50, “binds”. In addition, the binding result in the test with SEQ ID NO 44, with SEQ ID NO 45, with SEQ ID NO 47, with SEQ ID NO 49, with SEQ ID NO 43 and with SEQ ID NO 48 was “binds” throughout. Also, the Kd – broadly, the free concentration of one partner at which half of the binding sites on the other are occupied at equilibrium, for simple one-to-one binding – in test [3] is 0.01 nM. In test [3], the koff – broadly, a measure of how fast the partners let go of each other – was found to be 2.1e-05 s⁻¹. Moreover, in test [3], the kon (as a rule, a measure of how fast the partners come together) came out at 2e+06 M⁻¹ s⁻¹. Also, in [3], the t1/2-diss was determined as 9.33 h. Further, the “reactivity [mE]” value in test [6] turned out to be 32 mE; in [7], 2430 mE.

B2: MAb<h-IGF-1>M-10.07.09 (antibody, V domains shown)
VH: QVQLQQSGAELVRPGSSVKISCKASGYAFSSYWMNWVKQRPGQGLEWIGQIYPGDGDTNHNGKFKGKATLTADKSSSTVYMQLSSLTSEDSAVYFCARSGDYYGKDYWGQGTTLTVSS
VL: DIVLTQTPPSLPVNMGQKATISYKATKSLLNTDGYTYMHWNQQKPGQPPKLLIYLVSNRESGVPDRFSGSGSGTDFTLNINTVEEEDAATYYCHHSNELPHTFGAGTKLEIK
notes: Mouse monoclonal antibody from a hybridoma, raised with Thermus thermophilus SlyD-IGF-1(74-90); In SPR it was captured from clone culture supernatant through anti-mouse IgG Fc; also called MAb 10.07.09; M-10.7.9
Turning to B2, in test [3], the Kd amounted to 1.6 nM, the koff turned out to be 0.0015 s⁻¹, the kon was 920000 M⁻¹ s⁻¹ and the t1/2-diss was determined as 0.133 h. For the same molecule, the “reactivity [mE]” value in test [7] amounted to 2110 mE.
